Measurements published in patent publication US20260166185A1 (Y MABS THERAPEUTICS, published 2026).

Experiments:
[1] = molecular target: target expressed in cell line for the HER2/CD276 trivalent molecules (HER2 and/or CD276; cell line not named); assay: titration binding FACS, target cell line not named
[2] = molecular target: T1, CD276 on HEK293T cells (UniProt Q5ZPR3 29-534, limits assumed); assay: FACS titration on HEK293T cells (the line used for CD276 binding evaluation), GeoMFI (RL1-H); control cell line Jurkat E6-1
T1 construct: whole, on cells
T1 sequence (looked up): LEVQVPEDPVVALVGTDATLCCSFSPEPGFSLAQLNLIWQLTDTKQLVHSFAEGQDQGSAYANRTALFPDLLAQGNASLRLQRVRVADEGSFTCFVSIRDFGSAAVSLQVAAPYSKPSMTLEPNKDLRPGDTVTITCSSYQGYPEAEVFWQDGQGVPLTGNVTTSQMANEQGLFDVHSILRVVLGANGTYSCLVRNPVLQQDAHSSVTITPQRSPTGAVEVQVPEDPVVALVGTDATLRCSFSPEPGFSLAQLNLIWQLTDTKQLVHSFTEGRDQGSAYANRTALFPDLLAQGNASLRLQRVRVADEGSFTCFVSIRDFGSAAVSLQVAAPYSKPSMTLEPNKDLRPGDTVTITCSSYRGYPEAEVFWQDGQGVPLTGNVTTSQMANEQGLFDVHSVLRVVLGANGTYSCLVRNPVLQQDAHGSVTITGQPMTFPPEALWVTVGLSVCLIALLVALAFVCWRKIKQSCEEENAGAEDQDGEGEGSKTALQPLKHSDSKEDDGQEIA
Protocol: (§1) Subsequently the EC50 of antibodies samples was determined by titration binding FACS on Daudi cells (for CD38 binding evaluation), on THP-1 cells (for CD33 binding evaluation), on A-431 cells (for EGFR binding evaluation), on MKN-45 cells (for CEACAMS binding evaluation) and on HEK293T (for CD276 binding evaluation). Jurkat E6-1 or HEK293T cell lines were used as negative control, as applicable.

[3] = molecular target: T2, CD38 on Daudi cells (UniProt P28907 1-300, limits assumed); assay: titration binding FACS on Daudi cells
T2 construct: whole, on cells
Protocol: as §1

[4] = molecular target: T3, bio-huCD38 (human (hu), UniProt P28907 43-300, biotinylated (bio-), site not stated); assay: SPR, antigen immobilized, antibody as analyte 25-1.6 nM
Protocol: (§2) SPR analysis was performed on a Biocore 8K+, using a CFJB0944 CM5 sensor chip for immobilization and a SPR running buffer 1×HBS-EP+pH 7.4 (Cytiva, cat no. BR100669) according to the manufacturer's instructions.
(§3) In the second part of this example, antigen was immobilized on the chip and antibody dissolved in the SPR running buffer flowed over the chip.

[5] = molecular target: T3, bio-huCD38; assay: SPR, antibody captured on chip, antigen as analyte 200-6.25 nM
Protocol: as §2
In the first part of this example the antibody was immobilized on the chip and the antigen dissolved in the SPR running buffer flowed over the chip.

[6] = molecular target: T3, bio-huCD38; assay: SPR, antigen immobilized, antibody as analyte 25-1.6 nM; at the instrument's limit
[7] = molecular target: T3, bio-huCD38; assay: SPR, antigen immobilized, antibody as analyte 25-1.6 nM; estimated from ka and the limit kd, indicative
Protocol: as §2, §3

[8] = molecular target: T4, EGFR on A-431 cells (UniProt P00533 25-1210, limits assumed); assay: titration binding FACS on A-431 cells
T4 construct: whole, on cells
Protocol: as §1

[9] = molecular target: bio-huEGFR (human (hu), UniProt P00533 25-645, biotinylated (bio-), site not stated); assay: SPR, antigen immobilized, antibody as analyte 25-1.6 nM
Protocol: as §2, §3

Row | Binder | EC50 [1] | binding result [2] | EC50 [3] | kon [4] | Kd [5] | koff [5] | kon [5] | koff [6] | Kd [7] | other results
1 | HER2/CD276_23F11-DOTA(humanized fab)-p53 (bispecific antibody, Three specificities (HER2 VHH, CD276 VHH, humanized DOTA Fab); also called YM00053; molecule 17) light: QVQLQESGGGSVQAGGSLKLTCAASGYIFNSCGMGWYRQSPGRERELVSRISGDGDTWHKESVKGRFTISQDNVKKTLYLQMNSLKPEDTAVYFCAVCYNLETYWGQGTQVTVSSGGGSGGGSGGGSGGGGSQAVVTQEPSLTVSPGGTVTLTCGSSTGAVTASNYANWVQQKPGQAPRGLIGGHNNRPPGVPARFSGSLLGGKAALTLLGAQPEDEAEYYCALWYSDHWVIGGGTKLTVLGQPKANPTVTLFPPSSEELQANKATLVCLISDFYPGAVTVAWKADGSPVKAGVETTKPSKQSNNKYAASSYLSLTPEQWKSHRSYSCQVTHEGSTVEKTVAPTECS heavy: QVQLVESGGGLVQAGGSLRLSCAASGRTFSRQVMGWFRQAPGKERAFVAAISGSGGTTMYAGSVKGRFTISKDNAKNMVYLQMNSLKPEDTAVYYCNTVTPYDSWGQGTQVTVSSGGGGSGGGGSGGGGSGGGGGSHVQLVESGGGLVQPGGSLRLSCAASGFSLTDYGVHWVRQAPGKGLEWLGVIWSGGGTAYNTALISRFTISRDNSKNTLYLQMNSLRAEDTAVYYCARRGSYPYNYFDAWGQGTLVTVSSASTKGPSVFPLAPSSKSTSGGTAALGCLVKDYFPEPVTVSWNSGALTSGVHTFPAVLQSSGLYSLSSVVTVPSSSLGTQTYICNVNHKPSNTKVDKKVEPKSCGGGGSGGGGSKPLDGEYFTLQIRGRERFEMFRELNEALELKDAQAGKEPGGSGGAP | 12.4 nM | binds | – | – | – | – | – | – | – | –
2 | HER2/CD276_23A04-DOTA(humanized fab)-p53 (bispecific antibody, Three specificities (HER2 VHH, CD276 VHH, humanized DOTA Fab); also called YM00052; molecule 18) light: QVQLQESGGGSVQAGGSLKLTCAASGYIFNSCGMGWYRQSPGRERELVSRISGDGDTWHKESVKGRFTISQDNVKKTLYLQMNSLKPEDTAVYFCAVCYNLETYWGQGTQVTVSSGGGSGGGSGGGSGGGGSQAVVTQEPSLTVSPGGTVTLTCGSSTGAVTASNYANWVQQKPGQAPRGLIGGHNNRPPGVPARFSGSLLGGKAALTLLGAQPEDEAEYYCALWYSDHWVIGGGTKLTVLGQPKANPTVTLFPPSSEELQANKATLVCLISDFYPGAVTVAWKADGSPVKAGVETTKPSKQSNNKYAASSYLSLTPEQWKSHRSYSCQVTHEGSTVEKTVAPTECS heavy: QVQLVESGGGLVQSGDSLRLSCGWSGRTFSGYAMGWFRKAPGKDYEFVAAISVSETKTRYADSIRGRFTISRDNAKNTVYLQMNSLKPEDTAVYYCAASRSGVVGGREPTRYNYWGQGTQVTVSSGGGGSGGGGSGGGGSGGGGGSHVQLVESGGGLVQPGGSLRLSCAASGFSLTDYGVHWVRQAPGKGLEWLGVIWSGGGTAYNTALISRFTISRDNSKNTLYLQMNSLRAEDTAVYYCARRGSYPYNYFDAWGQGTLVTVSSASTKGPSVFPLAPSSKSTSGGTAALGCLVKDYFPEPVTVSWNSGALTSGVHTFPAVLQSSGLYSLSSVVTVPSSSLGTQTYICNVNHKPSNTKVDKKVEPKSCGGGGSGGGGSKPLDGEYFTLQIRGRERFEMFRELNEALELKDAQAGKEPGGSGGAP | 90.2 nM | binds | – | – | – | – | – | – | – | –
3 | CD38 (bivalent)-DOTA(Fab)-p53 (bispecific antibody, Two identical CD38 VHHs, one on each Fab chain; has the p53 tetramerization domain; also called YM00004; molecule 3) light: DVQLQESGGGLVQAGGSLRLSCTGSGRTFRNYPMAWFRQAPGKEREFVAGITWVGASTLYADFAKGRFTISRDNAKNTVYLQMNSLKPEDTAVYSCAAGRGIVAGRIPAEYADWGQGTQVTVSSGGGGSGGGGSGGGGSGGGGGSQAVVIQESALTTPPGETVTLTCGSSTGAVTASNYANWVQEKPDHLFTGLIGGHNNRPPGVPARFSGSLIGDKAALTIAGTQTEDEAIYFCALWYSDHWVIGGGTRLTVLGQPKANPTVTLFPPSSEELQANKATLVCLISDFYPGAVTVAWKADGSPVKAGVETTKPSKQSNNKYAASSYLSLTPEQWKSHRSYSCQVTHEGSTVEKTVAPTECS heavy: DVQLQESGGGLVQAGGSLRLSCTGSGRTFRNYPMAWFRQAPGKEREFVAGITWVGASTLYADFAKGRFTISRDNAKNTVYLQMNSLKPEDTAVYSCAAGRGIVAGRIPAEYADWGQGTQVTVSSGGGGSGGGGSGGGGSGGGGGSHVKLQESGPGLVQPSQSLSLTCTVSGFSLTDYGVHWVRQSPGKGLEWLGVIWSGGGTAYNTALISRLNIYRDNSKNQVFLEMNSLQAEDTAMYYCARRGSYPYNYFDAWGRGTTVTVSSASTKGPSVFPLAPSSKSTSGGTAALGCLVKDYFPEPVTVSWNSGALTSGVHTFPAVLQSSGLYSLSSVVTVPSSSLGTQTYICNVNHKPSNTKVDKKVEPKSCGGGGSGGGGSKPLDGEYFTLQIRGRERFEMFRELNEALELKDAQAGKEPGGS | – | – | 3.45 nM | 121000 M⁻¹ s⁻¹ | 2.77 nM | 0.00012 s⁻¹ | 43200 M⁻¹ s⁻¹ | < 1e-07 s⁻¹ | < 0.000826 nM | –
4 | CD38(Bivalent)-DOTA(fab)-p53_C-Term (bispecific antibody, Two identical C-terminal CD38 VHHs; has the p53 tetramerization domain; also called YM00015; molecule 14) light: QAVVIQESALTTPPGETVTLTCGSSTGAVTASNYANWVQEKPDHLFTGLIGGHNNRPPGVPARFSGSLIGDKAALTIAGTQTEDEAIYFCALWYSDHWVIGGGTRLTVLGQPKANPTVTLFPPSSEELQANKATLVCLISDFYPGAVTVAWKADGSPVKAGVETTKPSKQSNNKYAASSYLSLTPEQWKSHRSYSCQVTHEGSTVEKTVAPTECSGGGGSGGGGSGGGGSGGGGGSDVQLQESGGGLVQAGGSLRLSCTGSGRTFRNYPMAWFRQAPGKEREFVAGITWVGASTLYADFAKGRFTISRDNAKNTVYLQMNSLKPEDTAVYSCAAGRGIVAGRIPAEYADWGQGTQVTVSS heavy: HVKLQESGPGLVQPSQSLSLTCTVSGFSLTDYGVHWVRQSPGKGLEWLGVIWSGGGTAYNTALISRLNIYRDNSKNQVFLEMNSLQAEDTAMYYCARRGSYPYNYFDAWGRGTTVTVSSASTKGPSVFPLAPSSKSTSGGTAALGCLVKDYFPEPVTVSWNSGALTSGVHTFPAVLQSSGLYSLSSVVTVPSSSLGTQTYICNVNHKPSNTKVDKKVEPKSCGGGGSGGGGSGGGGSGGGGGSDVQLQESGGGLVQAGGSLRLSCTGSGRTFRNYPMAWFRQAPGKEREFVAGITWVGASTLYADFAKGRFTISRDNAKNTVYLQMNSLKPEDTAVYSCAAGRGIVAGRIPAEYADWGQGTQVTVSSGGGGSGGGGSKPLDGEYFTLQIRGRERFEMFRELNEALELKDAQAGKEPGGS | – | – | 3.24 nM | 187000 M⁻¹ s⁻¹ | 1.89 nM | 6.41e-05 s⁻¹ | 33800 M⁻¹ s⁻¹ | < 1e-07 s⁻¹ | < 0.000535 nM | –
5 | EGFR-DOTA(fab)-p53 (bispecific antibody, The assays name bio-huEGFR and A-431 cells; also called YM00010; molecule 9) light: EVQLVESGGGLVQPGGSLRLSCVASGFTFADYAMSWVRQAPGKGLQWVSSISYNGDTTYYAESMKDRFTISRDNAKNTLYLQMNSLKSEDTAVYYCASSGSYYPGHFESWGQGTQVTVSSGGGGSGGGGSGGGGSGGGGGSQAVVIQESALTTPPGETVTLTCGSSTGAVTASNYANWVQEKPDHLFTGLIGGHNNRPPGVPARFSGSLIGDKAALTIAGTQTEDEAIYFCALWYSDHWVIGGGTRLTVLGQPKANPTVTLFPPSSEELQANKATLVCLISDFYPGAVTVAWKADGSPVKAGVETTKPSKQSNNKYAASSYLSLTPEQWKSHRSYSCQVTHEGSTVEKTVAPTECS heavy: HVKLQESGPGLVQPSQSLSLTCTVSGFSLTDYGVHWVRQSPGKGLEWLGVIWSGGGTAYNTALISRLNIYRDNSKNQVFLEMNSLQAEDTAMYYCARRGSYPYNYFDAWGRGTTVTVSSASTKGPSVFPLAPSSKSTSGGTAALGCLVKDYFPEPVTVSWNSGALTSGVHTFPAVLQSSGLYSLSSVVTVPSSSLGTQTYICNVNHKPSNTKVDKKVEPKSCGGGGSGGGGSKPLDGEYFTLQIRGRERFEMFRELNEALELKDAQAGKEPGGS | – | – | – | – | – | – | – | – | – | EC50 [8]: 51.5 nM; Kd [9]: 2.12 nM; koff [9]: 0.000985 s⁻¹; kon [9]: 464000 M⁻¹ s⁻¹
